From patent US20190322750A1 (Y BIOLOGICS, published 2019)

T1: ITGA6
T1 construct: unrelated antigen column; all antibodies give 0.5 to 0.6
T1 sequence (P23229 whole entry, species assumed, looked up): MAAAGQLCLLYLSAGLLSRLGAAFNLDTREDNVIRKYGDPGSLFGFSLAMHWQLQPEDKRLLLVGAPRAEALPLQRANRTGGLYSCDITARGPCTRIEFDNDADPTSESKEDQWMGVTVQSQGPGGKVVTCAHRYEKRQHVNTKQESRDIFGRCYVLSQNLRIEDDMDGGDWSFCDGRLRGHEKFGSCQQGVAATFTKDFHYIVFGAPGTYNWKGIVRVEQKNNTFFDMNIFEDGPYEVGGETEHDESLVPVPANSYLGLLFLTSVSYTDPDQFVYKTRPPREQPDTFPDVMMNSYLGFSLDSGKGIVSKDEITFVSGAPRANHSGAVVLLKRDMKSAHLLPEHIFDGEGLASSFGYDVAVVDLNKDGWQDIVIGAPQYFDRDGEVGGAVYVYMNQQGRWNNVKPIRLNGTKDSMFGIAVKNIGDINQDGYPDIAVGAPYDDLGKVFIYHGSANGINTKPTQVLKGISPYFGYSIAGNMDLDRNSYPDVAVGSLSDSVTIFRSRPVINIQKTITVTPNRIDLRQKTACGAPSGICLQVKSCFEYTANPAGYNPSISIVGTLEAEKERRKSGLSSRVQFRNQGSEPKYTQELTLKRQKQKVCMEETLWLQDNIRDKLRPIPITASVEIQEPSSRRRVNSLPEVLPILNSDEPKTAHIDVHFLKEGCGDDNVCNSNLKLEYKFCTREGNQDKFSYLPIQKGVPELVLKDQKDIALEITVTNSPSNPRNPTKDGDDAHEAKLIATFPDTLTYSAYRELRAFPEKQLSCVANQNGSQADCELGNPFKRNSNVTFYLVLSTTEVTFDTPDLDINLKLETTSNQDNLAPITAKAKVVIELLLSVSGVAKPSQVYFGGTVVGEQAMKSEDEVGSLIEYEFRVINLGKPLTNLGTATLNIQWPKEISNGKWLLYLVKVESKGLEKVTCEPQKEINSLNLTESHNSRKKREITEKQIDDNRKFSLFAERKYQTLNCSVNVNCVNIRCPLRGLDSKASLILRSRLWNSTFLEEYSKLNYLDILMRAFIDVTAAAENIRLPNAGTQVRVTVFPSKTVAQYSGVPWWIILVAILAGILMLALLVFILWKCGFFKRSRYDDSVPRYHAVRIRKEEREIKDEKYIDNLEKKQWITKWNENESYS


Columns and labels:
M3 = assay: ELISA on coated antigen, column M3
WT = molecular target: T2, WT (human, UniProt Q9NZQ7); assay: ELISA on coated antigen, column WT
T2 construct: recombinant; also called hPD-L1; antigen PD-L1 wild type (WT)
Method: (§1) An antigen PD-L1 wild type (WT) or several mutants were coated at a density of 100 ng/well on a 96-well immunoplate at 4° C. for 16 hours and the wells were blocked with 4% skim milk dissolved in PBS. Each well was washed with 0.2 ml of PBS/T, and then a single clone scFv-phage (each […]) cultured for 16 hours was added in a dose of 100 μl to each well and reacted at room temperature for 2 hours. Again, each well was washed 4 times with 0.2 ml of PBS/T, and then the second antibody, anti-Fab, was diluted to 1/2000 and reacted at room temperature for 1 hour. After washing with 0.2 ml of PBS/T, color development was performed and absorbance was measured at 490 nm.

M1 = assay: ELISA on coated antigen, column M1
Method: as §1

ITGA6 = molecular target: T1, ITGA6; assay: ELISA on coated antigen, column ITGA6
M6 = assay: ELISA on coated antigen, column M6
Method: as §1

M8 = assay: ELISA on coated antigen, column M8
Method: as §1

M4 = assay: ELISA on coated antigen, column M4
Method: as §1

M2 = assay: ELISA on coated antigen, column M2
Method: as §1

M7 = assay: ELISA on coated antigen, column M7
mouse PD-L1 protein = mouse PD-L1 protein (mouse, UniProt Q9EP73 19-238, limits assumed); assay: ELISA on coated antigen, column mPD-L1
Method: as §1

M5 = assay: ELISA on coated antigen, column M5
Method: as §1

[1] = molecular target: PD-L1 on CHO cell line highly expressing PD-L1 (PD-1/PD-L1 blockade bioassay kit, promega J1250) (UniProt Q9NZQ7 19-290, limits assumed); assay: cell-based or functional assay
Sequence of PD-L1 on CHO cell line highly expressing PD-L1 (PD-1/PD-L1 blockade bioassay kit, promega J1250) (Q9NZQ7 19-290 limits assumed): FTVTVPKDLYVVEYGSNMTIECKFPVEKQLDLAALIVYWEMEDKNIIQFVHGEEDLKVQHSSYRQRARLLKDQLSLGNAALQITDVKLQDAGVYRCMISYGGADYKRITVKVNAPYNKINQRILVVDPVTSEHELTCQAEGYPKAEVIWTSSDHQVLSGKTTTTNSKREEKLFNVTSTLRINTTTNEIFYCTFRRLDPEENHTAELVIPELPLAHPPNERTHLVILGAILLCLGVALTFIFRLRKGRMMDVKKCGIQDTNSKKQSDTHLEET

Sequence of mouse PD-L1 protein (Q9EP73 19-238 limits assumed): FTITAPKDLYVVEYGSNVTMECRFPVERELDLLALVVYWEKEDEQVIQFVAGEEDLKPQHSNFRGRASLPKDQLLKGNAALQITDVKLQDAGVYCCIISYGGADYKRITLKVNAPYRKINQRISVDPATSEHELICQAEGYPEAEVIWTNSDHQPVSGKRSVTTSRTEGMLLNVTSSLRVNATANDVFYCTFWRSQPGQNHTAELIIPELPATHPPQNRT
T2 sequence (Q9NZQ7 19-238 limits assumed): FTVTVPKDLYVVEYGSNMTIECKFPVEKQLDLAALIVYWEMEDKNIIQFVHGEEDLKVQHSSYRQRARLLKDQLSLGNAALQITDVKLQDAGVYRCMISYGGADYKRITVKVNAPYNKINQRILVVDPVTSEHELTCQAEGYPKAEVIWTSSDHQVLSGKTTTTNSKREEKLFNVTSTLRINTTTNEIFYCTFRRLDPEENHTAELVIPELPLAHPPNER

Binder	absorbance at 490 nm (M3)	absorbance at 490 nm (WT)	absorbance at 490 nm (M1)	absorbance at 490 nm (ITGA6)	absorbance at 490 nm (M6)	absorbance at 490 nm (M8)	absorbance at 490 nm (M4)	absorbance at 490 nm (M2)	absorbance at 490 nm (M7)	absorbance at 490 nm (mouse PD-L1 protein)	binding result (mouse PD-L1 protein)	absorbance at 490 nm (M5)	Average *EC50 [nM], PD-1/PD-L1 blockade bioassay [1] [nM]
PDL1-23E10 (scFv, V domains shown) VH: QMQLVESGAEVKKPGSSVKVSCKVSGENFRSHAISWVRQAPGQGLEWMGRIIPIVGLADYPQKFQGRVTISADESTGTAYMDLSSLRSEDTAVYYCVTGRPPWHWGQGILITVSS VL: QLVLTQPPSVSGAPGQRVTISCTGSSSNIGAGYDVHWYQQLPGTAPKLLIYSNRNRPSGVPDRFSGSKSGTSASLAITGLQAEDEADYYCQSYDSSLSGPNYVFGTGTKVTVL	0.7	2.2	2.1	0.5	2.2	1	0.5	2.1	2.3	0.3	no binding	2.2	–
PDL1-31B7 (antibody, V domains shown, Only FR/CDR pieces are tied to the clone) VH: QVQLVESGAEVKKPGSSVKVSCKASGGTFSSYAISWVRQAPGQGLEWMGRIIPILGIANYAQKFQGRVTITADKSTSTAYMELSSLRSEDTAVYYCARASSGYSVGAFDIWGQGTMVTVSS VL: QLVLTQPPSVSAPPGQKVTISCSGSSSNIGNNYVSWYQQLPGTAPKLLIYDNNERPSGIPDRFSASKSGTSATLGISGLQTGDEADYYCGTWDSSLSAGVFGGGTKLTVL	1.1	2.5	2.8	0.5	2.9	3	0.7	2.7	3	1.8	–	2.9	1.74
PDL1-23E5 (antibody, V domains shown, Only FR/CDR pieces are tied to the clone) VH: QVQLVQSGAEVVKPGSSVKVSCKASGDTFSRYAISWVRQAPGQAPEWMGRIIPVLGAANYARKFQDRVTITADISTTTAFMELTSLRSEDTAVYYCARSLSGYSLGAFDVWGPGTLVTVSS VL: QLVLTQPPSVSGAPGQSVSISCIGSNSNIGTPYDVHWYQQIPGEAPKLLIYGSTNRPSGVPDRFSGSRSGSSASLDITGLQADDEAYYYCQSYDRSLGVSDVVFGGGTKLTVL	0.9	2.5	2.4	0.5	2.5	2.6	0.5	2.4	2.6	2.5	–	2.5	1.61
PDL1-11A7 (antibody, V domains shown, Only FR/CDR pieces are tied to the clone) VH: QVQLVQSGAEVKKPGASVKVSCKVSGYTLTELSMHWVRQAPGKGLEWMGGFDPEDGETIYAQKFQGRVTMTEDTSTDTAYMELSSLRSEDTAVYYCARDPWGGYYGMDVWGQGTTVTVSS VL: DIQMTQSPSSVSASVGDRVTINCRASQGIRTWLAWYQQKPGKAPKLLIYAASNLQSGVPSRFSGSGSGTDFTLTIASLQPEDFATYYCQQANSFPLTFGGGTKVEIK	0.8	2.5	2.5	0.5	2.5	0.4	2.4	2.3	2.5	0.1	no binding	2.5	3.25
PDL1-27F8 (antibody, V domains shown, Only FR/CDR pieces are tied to the clone) VH: QVQLVQSGAEVKKPGSSVKVSCKASGGTFSSSAFSWVRQAPGHGLEWMGRIIPMFDMTDYAQRFQGRLTIIADESSSTAYMELSSLRSEDTAVYYCARSNPHYMDVWGQGTTVTVSS VL: QLVLTQPPSVSGAPGQRVTISCTGSNSDIGAGHDVHWYQQIPGTAPKVLIYGNTDRPSGVPDRFSGSKSGTSASLAITGLQAEDEADYYCQSYDSSLSGYVFGTGTKVTVL	0.9	2.9	2.6	0.5	2.9	2	0.4	2.5	3	0.1	no binding	2.9	1.1
PDL1-31E6 (antibody, V domains shown, Only FR/CDR pieces are tied to the clone) VH: QVQLVQSGAEVKKPGSSVKVSCKASGGTFSSYAISWVRQAPGQGLEWMGGIIPIFGTANYAQKFQGRVTITADESTSTAYMELSSLRSEDTAVYYCARGGRSFGAFDSWGQGALVTVSS VL: DIQMTQSPATLSLSPGERATLSCTASQSISSYLAWYQQKPGQAPRLLIYDSSNRATGIPARFSGSGSGTAFTLTISSLEPEDFAVYFCQQRGQWPLTFGGGTKVDIK	1	2.2	2.1	0.5	2.5	1.9	2.4	1.8	2.5	1.3	–	2.7	–
PDL1-31D9 (antibody, V domains shown, Only FR/CDR pieces are tied to the clone) VH: QMQLVESGGGLVQPGGSLRLSCSASGFTFSSYVMHWVRQAPGKGLEYVSAISSNGGSTYYADSVKGRFTISRDNSKNTLYLQMSSLRSEDTAVYYCAREHFSTYSYGVDVWGPGTTVTVSS VL: DIVMTQTPLSLPVTPGEPASISCRSSQSLLDSDDGNTYLDWYLQKPGQSPQLLIYMISFRASGVPDRFSGSGSGTDFTLKISRVEAEDSGIYYCMQRVEFPYTFGQGTKLEIK	2.5	2.5	1.6	0.5	1.9	1.8	1.8	1.7	1.9	0.1	no binding	1.8	–
